In assay [1] the target is 50S ribosomal subunit of E. coli (E. coli) (UniProt P0A7L0).
Assay [2] has the same target. The assay can be described thus: stopped-flow Rayleigh light scattering of subunit association; 30S-preIC (0.25 µM final; mRNA, fMet-tRNAfMet, IF1, IF2, GTP) mixed with 50S (0.25 µM final) preincubated with ObgE or ObgE-NG; HEPES polymix buffer pH 7.5, 37°C; Ki from the midpoint of k obs against concentration.
The target is the same in assay [3]. Description: co-sedimentation; as a1, with 0.5 mM ppGpp.
Assay [4] shares this target. Description: stopped-flow Rayleigh light scattering of subunit association; naked 30S (0.25 µM final) mixed with 50S (0.25 µM final) preincubated with ObgE or ObgE-NG (0.5-20 µM in the mix); HEPES polymix buffer pH 7.5, 37°C; Ki from the midpoint of k obs against concentration.

Sequence of UniProt P0A7L0 (P0A7L0 whole entry, looked up): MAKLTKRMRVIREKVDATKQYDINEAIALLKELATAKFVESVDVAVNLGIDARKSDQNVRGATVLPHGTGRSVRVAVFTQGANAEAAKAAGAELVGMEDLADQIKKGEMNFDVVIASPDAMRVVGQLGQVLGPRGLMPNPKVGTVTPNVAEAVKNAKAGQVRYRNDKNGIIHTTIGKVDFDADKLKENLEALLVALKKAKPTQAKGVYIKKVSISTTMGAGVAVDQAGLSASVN

What is called Ki is a measure of affinity in units of concentration, obtained from inhibition or displacement. A lower Ki goes with tighter binding. In assay [1], “ObgE (Obg protein in Escherichia coli), full-length, His-tagged (from UniProt P42641 1-390) (enzyme)” yielded a GTP hydrolysis rate of ObgE (MESG assay, phosphate release) with increasing amounts of 50S subunits up to an equal amount; without 50S ∼0.0268 min^−1; stimulated about 120-fold of 3.15 min⁻¹. For the same substance, the values for the inhibition constant (Ki) in assay [2] and in assay [4] were 0.3 µM and 2 µM, respectively. In assay [3], this substance had a fold occupancy on the 50S subunit against the apo state above 5 fold.
“mRNA programmed 30S-preinitiation complex (30S-preIC) (from UniProt P69222 1-72; P0A705 1-890)”: in assay [2], the k obs of subunit association (without ObgE) was determined as 20 s⁻¹.
For “ObgE-NG (CTD deleted construct of ObgE, residues 1-340) (from UniProt P42641 1-340) (domain or fragment)”, the Ki in assay [2] was 1 µM; in assay [4], 3.7 µM.
In turn, “30S ribosomal subunit of E. coli (naked 30S subunit) (complex)” displayed a k obs of subunit association (without ObgE) in assay [4] of 4 s⁻¹.
